Laboratory results as given in the supplement of paper PMC10567573.

B1: MFF (parent)
chain: DDLTVVDAASLRRQIIKLNRRLQL

Variants of: B1
Assay: protein stability index of a GFP-peptide fusion (GPS, HEK-293T) (PSI 1-6); higher = more stable
Settings: c terminus: a fixed tail appended
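Note: lentivirally expressed fusions sorted by FACS into six bins by GFP to DsRed ratio, PSI derived from sequencing read proportions per bin multiplied by bin number.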

Protein stability index: each site, then its substitutions
R20: F 2.43 | T 2.76 | Q 1.85 | I 2.07 | H 2.26 | A 1.9
T4: I 2.2 | R 2.18 | S 2.43 | F 2.08 | P 1.56 | L 2.62 | H 1.7 | D 2.6 | K 2.15
D7: T 1.64 | S 2.24 | A 2.29 | R 2.93 | C 1.4 | Q 2.17
I16: D 2.85 | S 1.52 | P 3.66 | Y 2.97 | A 2.48 | L 2.19 | F 3.4 | E 1.88
K17: L 2.37 | S 2.76 | D 1.85 | Y 1.89 | A 1.01 | G 1.99 | T 2.47 | V 1.66 | W 1.74
D2: Q 2.32 | R 1.82 | I 1.85 | H 2.02 | S 2.24 | C 2.73 | G 2.56 | T 2.31 | A 2.37 | Y 2
L22: V 2.61 | F 2.36 | E 2.77 | M 3.02 | K 3.74 | N 3.78
L11: H 3.19 | E 3.7 | M 2.51 | V 3.05 | K 3.28 | P 3.33 | Q 3.24
V5: N 2.61 | A 2.44 | S 2.5 | Q 2.26 | W 1.93 | M 2.05
L24: D 2.77 | T 2.38 | P 2.89 | M 1.71 | A 2.29 | S 2.42 | R 2.74
A8: H 1.95 | Y 1.3 | Q 2.38 | F 2.35 | K 3.29 | I 1.61 | P 2.42 | N 2.63 | T 1.69
N19: R 1.76 | V 2.25 | W 2.86
V6: M 1.99 | Y 1.77 | K 2.35 | R 2.91 | A 2.91 | N 2.4
S10: Q 2.28 | G 2.3 | W 3.84 | H 2.02 | M 1.42 | D 2.05 | P 2.89
I15: P 4.26 | E 3.83 | S 3.74 | N 2.71 | M 1.87 | V 3.05
R12: L 1.67 | P 2.51 | F 1.99 | D 2.5 | T 1.73 | Q 2.13
R21: C 1.95 | D 1.73 | W 1.91 | K 1.88 | G 1.84
L18: D 4.13 | S 3.04 | Y 3.26 | C 1.62
L3: H 2.73 | S 2.57 | R 2.58 | A 2.59 | C 2.33 | G 2.58 | F 2.73 | P 2.48 | Q 2.45 | N 2.09
R13: V 2.55 | I 1.41 | G 2.14 | D 2.27 | C 2.22 | K 2.17 | M 2.54 | L 2.56
Q23: R 2.23 | V 1.34 | F 2.32 | G 2.5 | K 2.38 | L 2.15 | S 2.63 | D 2.33 | H 1.5
A9: P 2.12 | H 2.52 | M 1.84 | E 2.13 | F 1.58 | Y 2.48
Q14: H 1.57 | Y 1.54 | M 1.04 | C 2.27 | D 2.16 | N 2.31
D1: H 1.84 | P 2.05 | I 2.32 | R 2.45 | F 2.42 | M 1.98 | Q 3.2 | L 1.61
